Results reported in patent US20210388087A1 (Chugai, published 2021).

Biological target: T1, Human CD137 ECD (human)
T1 construct: entry includes C-terminal His-tag and biotin acceptor peptide; also called human CD137 extracellular domain; 4-1BB
Test: Biacore SPR, vs parent H183/L072

T1 sequence (chain, as listed by the source limits assumed): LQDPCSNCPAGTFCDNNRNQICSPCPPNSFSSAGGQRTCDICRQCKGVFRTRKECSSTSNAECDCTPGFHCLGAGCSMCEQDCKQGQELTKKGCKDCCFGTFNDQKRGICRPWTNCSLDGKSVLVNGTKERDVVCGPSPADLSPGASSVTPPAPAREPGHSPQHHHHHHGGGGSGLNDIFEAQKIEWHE

fold change of affinity [fold]	Binder
1.1	H183/L072 VL E27aD (antibody, name in Kabat numbering, V domains shown, Dual-Ig) VH: QVQLVESGGGLVQPGRSLRLSCAASGFTFSNAWMHWVRQAPGKGLEWVAQIKDKGNAYAAYYAPSVKGRFTISRDDSKNSIYLQMNSLKTEDTAVYYCHYVHYASASTVLPAFGVDAWGQGTTVTVSS VL: DIVMTQSPLSLPVTPGEPASISCQASQDLVHMNRNTYLHWYQQKPGQAPRLLIYKVSNRFPGVPDRFSGSGSGTDFTLKISRVEAEDVGVYYCAQGTSVPFTFGQGTKLEIK
0.8	H183/L072 VL E27aP (antibody, name in Kabat numbering, V domains shown, Dual-Ig) VH: QVQLVESGGGLVQPGRSLRLSCAASGFTFSNAWMHWVRQAPGKGLEWVAQIKDKGNAYAAYYAPSVKGRFTISRDDSKNSIYLQMNSLKTEDTAVYYCHYVHYASASTVLPAFGVDAWGQGTTVTVSS VL: DIVMTQSPLSLPVTPGEPASISCQASQPLVHMNRNTYLHWYQQKPGQAPRLLIYKVSNRFPGVPDRFSGSGSGTDFTLKISRVEAEDVGVYYCAQGTSVPFTFGQGTKLEIK
0.9	H183/L072 VL E27aR (antibody, name in Kabat numbering, V domains shown, Dual-Ig) VH: QVQLVESGGGLVQPGRSLRLSCAASGFTFSNAWMHWVRQAPGKGLEWVAQIKDKGNAYAAYYAPSVKGRFTISRDDSKNSIYLQMNSLKTEDTAVYYCHYVHYASASTVLPAFGVDAWGQGTTVTVSS VL: DIVMTQSPLSLPVTPGEPASISCQASQRLVHMNRNTYLHWYQQKPGQAPRLLIYKVSNRFPGVPDRFSGSGSGTDFTLKISRVEAEDVGVYYCAQGTSVPFTFGQGTKLEIK
0.9	H183/L072 VL E27aK (antibody, name in Kabat numbering, V domains shown, Dual-Ig) VH: QVQLVESGGGLVQPGRSLRLSCAASGFTFSNAWMHWVRQAPGKGLEWVAQIKDKGNAYAAYYAPSVKGRFTISRDDSKNSIYLQMNSLKTEDTAVYYCHYVHYASASTVLPAFGVDAWGQGTTVTVSS VL: DIVMTQSPLSLPVTPGEPASISCQASQKLVHMNRNTYLHWYQQKPGQAPRLLIYKVSNRFPGVPDRFSGSGSGTDFTLKISRVEAEDVGVYYCAQGTSVPFTFGQGTKLEIK
0.9	H183/L072 VL E27aL (antibody, name in Kabat numbering, V domains shown, Dual-Ig) VH: QVQLVESGGGLVQPGRSLRLSCAASGFTFSNAWMHWVRQAPGKGLEWVAQIKDKGNAYAAYYAPSVKGRFTISRDDSKNSIYLQMNSLKTEDTAVYYCHYVHYASASTVLPAFGVDAWGQGTTVTVSS VL: DIVMTQSPLSLPVTPGEPASISCQASQLLVHMNRNTYLHWYQQKPGQAPRLLIYKVSNRFPGVPDRFSGSGSGTDFTLKISRVEAEDVGVYYCAQGTSVPFTFGQGTKLEIK
0.5	H183/L072 VL E27aT (antibody, name in Kabat numbering, V domains shown, Dual-Ig) VH: QVQLVESGGGLVQPGRSLRLSCAASGFTFSNAWMHWVRQAPGKGLEWVAQIKDKGNAYAAYYAPSVKGRFTISRDDSKNSIYLQMNSLKTEDTAVYYCHYVHYASASTVLPAFGVDAWGQGTTVTVSS VL: DIVMTQSPLSLPVTPGEPASISCQASQTLVHMNRNTYLHWYQQKPGQAPRLLIYKVSNRFPGVPDRFSGSGSGTDFTLKISRVEAEDVGVYYCAQGTSVPFTFGQGTKLEIK
0.6	H183/L072 VL E27aS (antibody, name in Kabat numbering, V domains shown, Dual-Ig) VH: QVQLVESGGGLVQPGRSLRLSCAASGFTFSNAWMHWVRQAPGKGLEWVAQIKDKGNAYAAYYAPSVKGRFTISRDDSKNSIYLQMNSLKTEDTAVYYCHYVHYASASTVLPAFGVDAWGQGTTVTVSS VL: DIVMTQSPLSLPVTPGEPASISCQASQSLVHMNRNTYLHWYQQKPGQAPRLLIYKVSNRFPGVPDRFSGSGSGTDFTLKISRVEAEDVGVYYCAQGTSVPFTFGQGTKLEIK
0.9	H183/L072 VL E27aM (antibody, name in Kabat numbering, V domains shown, Dual-Ig) VH: QVQLVESGGGLVQPGRSLRLSCAASGFTFSNAWMHWVRQAPGKGLEWVAQIKDKGNAYAAYYAPSVKGRFTISRDDSKNSIYLQMNSLKTEDTAVYYCHYVHYASASTVLPAFGVDAWGQGTTVTVSS VL: DIVMTQSPLSLPVTPGEPASISCQASQMLVHMNRNTYLHWYQQKPGQAPRLLIYKVSNRFPGVPDRFSGSGSGTDFTLKISRVEAEDVGVYYCAQGTSVPFTFGQGTKLEIK
1.1	H183/L072 VL E27aH (antibody, name in Kabat numbering, V domains shown, Dual-Ig) VH: QVQLVESGGGLVQPGRSLRLSCAASGFTFSNAWMHWVRQAPGKGLEWVAQIKDKGNAYAAYYAPSVKGRFTISRDDSKNSIYLQMNSLKTEDTAVYYCHYVHYASASTVLPAFGVDAWGQGTTVTVSS VL: DIVMTQSPLSLPVTPGEPASISCQASQHLVHMNRNTYLHWYQQKPGQAPRLLIYKVSNRFPGVPDRFSGSGSGTDFTLKISRVEAEDVGVYYCAQGTSVPFTFGQGTKLEIK
1.1	H183/L072 VL E27aY (antibody, name in Kabat numbering, V domains shown, Dual-Ig) VH: QVQLVESGGGLVQPGRSLRLSCAASGFTFSNAWMHWVRQAPGKGLEWVAQIKDKGNAYAAYYAPSVKGRFTISRDDSKNSIYLQMNSLKTEDTAVYYCHYVHYASASTVLPAFGVDAWGQGTTVTVSS VL: DIVMTQSPLSLPVTPGEPASISCQASQYLVHMNRNTYLHWYQQKPGQAPRLLIYKVSNRFPGVPDRFSGSGSGTDFTLKISRVEAEDVGVYYCAQGTSVPFTFGQGTKLEIK

The next lines start with the binder.

Binder	fold change of affinity [fold]
H183/L072 VL A89W (antibody, name in Kabat numbering, V domains shown, Dual-Ig) VH: QVQLVESGGGLVQPGRSLRLSCAASGFTFSNAWMHWVRQAPGKGLEWVAQIKDKGNAYAAYYAPSVKGRFTISRDDSKNSIYLQMNSLKTEDTAVYYCHYVHYASASTVLPAFGVDAWGQGTTVTVSS VL: DIVMTQSPLSLPVTPGEPASISCQASQELVHMNRNTYLHWYQQKPGQAPRLLIYKVSNRFPGVPDRFSGSGSGTDFTLKISRVEAEDVGVYYCWQGTSVPFTFGQGTKLEIK	0
H183/L072 VL E27aG (antibody, name in Kabat numbering, V domains shown, Dual-Ig) VH: QVQLVESGGGLVQPGRSLRLSCAASGFTFSNAWMHWVRQAPGKGLEWVAQIKDKGNAYAAYYAPSVKGRFTISRDDSKNSIYLQMNSLKTEDTAVYYCHYVHYASASTVLPAFGVDAWGQGTTVTVSS VL: DIVMTQSPLSLPVTPGEPASISCQASQGLVHMNRNTYLHWYQQKPGQAPRLLIYKVSNRFPGVPDRFSGSGSGTDFTLKISRVEAEDVGVYYCAQGTSVPFTFGQGTKLEIK	1
H183/L072 VL F55G (antibody, name in Kabat numbering, V domains shown, Dual-Ig) VH: QVQLVESGGGLVQPGRSLRLSCAASGFTFSNAWMHWVRQAPGKGLEWVAQIKDKGNAYAAYYAPSVKGRFTISRDDSKNSIYLQMNSLKTEDTAVYYCHYVHYASASTVLPAFGVDAWGQGTTVTVSS VL: DIVMTQSPLSLPVTPGEPASISCQASQELVHMNRNTYLHWYQQKPGQAPRLLIYKVSNRGPGVPDRFSGSGSGTDFTLKISRVEAEDVGVYYCAQGTSVPFTFGQGTKLEIK	0
H183/L072 VL E27aI (antibody, name in Kabat numbering, V domains shown, Dual-Ig) VH: QVQLVESGGGLVQPGRSLRLSCAASGFTFSNAWMHWVRQAPGKGLEWVAQIKDKGNAYAAYYAPSVKGRFTISRDDSKNSIYLQMNSLKTEDTAVYYCHYVHYASASTVLPAFGVDAWGQGTTVTVSS VL: DIVMTQSPLSLPVTPGEPASISCQASQILVHMNRNTYLHWYQQKPGQAPRLLIYKVSNRFPGVPDRFSGSGSGTDFTLKISRVEAEDVGVYYCAQGTSVPFTFGQGTKLEIK	0.8
H183/L072 VL E27aW (antibody, name in Kabat numbering, V domains shown, Dual-Ig) VH: QVQLVESGGGLVQPGRSLRLSCAASGFTFSNAWMHWVRQAPGKGLEWVAQIKDKGNAYAAYYAPSVKGRFTISRDDSKNSIYLQMNSLKTEDTAVYYCHYVHYASASTVLPAFGVDAWGQGTTVTVSS VL: DIVMTQSPLSLPVTPGEPASISCQASQWLVHMNRNTYLHWYQQKPGQAPRLLIYKVSNRFPGVPDRFSGSGSGTDFTLKISRVEAEDVGVYYCAQGTSVPFTFGQGTKLEIK	1
H183/L072 VL F55E (antibody, name in Kabat numbering, V domains shown, Dual-Ig) VH: QVQLVESGGGLVQPGRSLRLSCAASGFTFSNAWMHWVRQAPGKGLEWVAQIKDKGNAYAAYYAPSVKGRFTISRDDSKNSIYLQMNSLKTEDTAVYYCHYVHYASASTVLPAFGVDAWGQGTTVTVSS VL: DIVMTQSPLSLPVTPGEPASISCQASQELVHMNRNTYLHWYQQKPGQAPRLLIYKVSNREPGVPDRFSGSGSGTDFTLKISRVEAEDVGVYYCAQGTSVPFTFGQGTKLEIK	0
H183/L072 VL E27aN (antibody, name in Kabat numbering, V domains shown, Dual-Ig) VH: QVQLVESGGGLVQPGRSLRLSCAASGFTFSNAWMHWVRQAPGKGLEWVAQIKDKGNAYAAYYAPSVKGRFTISRDDSKNSIYLQMNSLKTEDTAVYYCHYVHYASASTVLPAFGVDAWGQGTTVTVSS VL: DIVMTQSPLSLPVTPGEPASISCQASQNLVHMNRNTYLHWYQQKPGQAPRLLIYKVSNRFPGVPDRFSGSGSGTDFTLKISRVEAEDVGVYYCAQGTSVPFTFGQGTKLEIK	0.9
H183/L072 VL E27aF (antibody, name in Kabat numbering, V domains shown, Dual-Ig) VH: QVQLVESGGGLVQPGRSLRLSCAASGFTFSNAWMHWVRQAPGKGLEWVAQIKDKGNAYAAYYAPSVKGRFTISRDDSKNSIYLQMNSLKTEDTAVYYCHYVHYASASTVLPAFGVDAWGQGTTVTVSS VL: DIVMTQSPLSLPVTPGEPASISCQASQFLVHMNRNTYLHWYQQKPGQAPRLLIYKVSNRFPGVPDRFSGSGSGTDFTLKISRVEAEDVGVYYCAQGTSVPFTFGQGTKLEIK	1.1
H183/L072 VL E27aQ (antibody, name in Kabat numbering, V domains shown, Dual-Ig) VH: QVQLVESGGGLVQPGRSLRLSCAASGFTFSNAWMHWVRQAPGKGLEWVAQIKDKGNAYAAYYAPSVKGRFTISRDDSKNSIYLQMNSLKTEDTAVYYCHYVHYASASTVLPAFGVDAWGQGTTVTVSS VL: DIVMTQSPLSLPVTPGEPASISCQASQQLVHMNRNTYLHWYQQKPGQAPRLLIYKVSNRFPGVPDRFSGSGSGTDFTLKISRVEAEDVGVYYCAQGTSVPFTFGQGTKLEIK	1.1
H183/L072 VL F55D (antibody, name in Kabat numbering, V domains shown, Dual-Ig) VH: QVQLVESGGGLVQPGRSLRLSCAASGFTFSNAWMHWVRQAPGKGLEWVAQIKDKGNAYAAYYAPSVKGRFTISRDDSKNSIYLQMNSLKTEDTAVYYCHYVHYASASTVLPAFGVDAWGQGTTVTVSS VL: DIVMTQSPLSLPVTPGEPASISCQASQELVHMNRNTYLHWYQQKPGQAPRLLIYKVSNRDPGVPDRFSGSGSGTDFTLKISRVEAEDVGVYYCAQGTSVPFTFGQGTKLEIK	0
H183/L072 VL E27aA (antibody, name in Kabat numbering, V domains shown, Dual-Ig) VH: QVQLVESGGGLVQPGRSLRLSCAASGFTFSNAWMHWVRQAPGKGLEWVAQIKDKGNAYAAYYAPSVKGRFTISRDDSKNSIYLQMNSLKTEDTAVYYCHYVHYASASTVLPAFGVDAWGQGTTVTVSS VL: DIVMTQSPLSLPVTPGEPASISCQASQALVHMNRNTYLHWYQQKPGQAPRLLIYKVSNRFPGVPDRFSGSGSGTDFTLKISRVEAEDVGVYYCAQGTSVPFTFGQGTKLEIK	0.9
